Experimental findings from paper PMC5884802 are described below.

The test system of series [1] is Amp(short)-FAM (α-Amp(short) aptamer) (DNA, aptamer) CACGGCATGGTGGGCGTCGTG
In words: microscale thermophoresis. The conditions noted are these: Na+ 50 mM, K+ 5 mM, Mg2+ 5 mM, Ca2+ 2 mM; 20 mM Tris-HCl, 0.1% Tween-20, pH 8.0; second printed KD 600 nM, unexplained.

The subject of series [2] is CRP-FAM (α-CRP aptamer) (DNA, aptamer) ACACGATGGGGGGGTATGATTTGATGTGGTTGTTGCATGATCGTGG
In words: microscale thermophoresis. The conditions noted are these: Na+ 50 mM, K+ 5 mM, Mg2+ 5 mM, Ca2+ 2 mM; 20 mM Tris-HCl, 0.1% Tween-20, pH 8.0; up to 100 µM; no plateau, no fit.

Series [3] concerns α-Amp-short (α-Amp-short-AuNP) (DNA, aptamer) CACGGCATGGTGGGCGTCGTG
In words: competitive lateral flow assay. The following applies: Na+ 50 mM, K+ 5 mM, Mg2+ 5 mM, Ca2+ 2 mM; 20 mM Tris, 0.1 mM BSA, 1.7% Triton-X-100, pH 8; biotinylated CRP displaced; signal decrease at 185 µg ampicillin.

The test system of series [4] is α-CRP (α-CRP-AuNP) (DNA, aptamer) ACACGATGGGGGGGTATGATTTGATGTGGTTGTTGCATGATCGTGG
In words: competitive lateral flow assay. The conditions noted are these: Na+ 50 mM, K+ 5 mM, Mg2+ 5 mM, Ca2+ 2 mM; 20 mM Tris, 0.1 mM BSA, 1.7% Triton-X-100, pH 8; biotinylated CRP displaced; signal decrease at 18.5 µg ampicillin.

The target in series [5] is T1, C-reactive protein (CRP), biotinylated (UniProt P02741 19-224).
T1 sequence: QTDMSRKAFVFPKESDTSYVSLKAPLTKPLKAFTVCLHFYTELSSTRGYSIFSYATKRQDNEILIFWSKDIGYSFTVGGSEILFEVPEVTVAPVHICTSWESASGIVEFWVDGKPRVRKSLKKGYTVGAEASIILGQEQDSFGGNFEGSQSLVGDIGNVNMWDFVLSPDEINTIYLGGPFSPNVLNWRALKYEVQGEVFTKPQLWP
In words: MST; binding indicated, no plateau, no Kd fit; CRP-biotin 610 pM-20 µM; LFA: 20 mM Tris, 50 mM NaCl, 5 mM KCl, 5 mM MgCl2, 2 mM CaCl2, 0.1 mM BSA, 1.7% Triton X-100, pH 8, temperature not stated; MST with CRP-biotin: 32.8 mM Tris-HCl, 70.5 mM NaCl, 2.5 mM KCl, 2.5 mM MgCl2, 1.4 mM CaCl2, 0.1% Tween-20, 5 nM FAM-oligo. The conditions noted are these: protein: commercial; tags: biotin (NHS-PEG4-Biotin); chain copies: 5; label: 5' FAM; stem-loop (Mfold).

The target of series [6] is T1, C-reactive protein (CRP), biotinylated. The experiment in a line: lateral flow assay (AuNP); 40.5 µg CRP-biotin; LFA: 20 mM Tris, 50 mM NaCl, 5 mM KCl, 5 mM MgCl2, 2 mM CaCl2, 0.1 mM BSA, 1.7% Triton X-100, pH 8, temperature not stated; MST with CRP-biotin: 32.8 mM Tris-HCl, 70.5 mM NaCl, 2.5 mM KCl, 2.5 mM MgCl2, 1.4 mM CaCl2, 0.1% Tween-20, 5 nM FAM-oligo. The following applies: protein: commercial; tags: biotin (NHS-PEG4-Biotin); chain copies: 5; label: 10 nm gold nanoparticle via 5' thiol; stem-loop (Mfold).

Series [7] shares this target. The experiment in a line: lateral flow assay (AuNP); 40.5 µg CRP-biotin; test line stronger than α-CRP; LFA: 20 mM Tris, 50 mM NaCl, 5 mM KCl, 5 mM MgCl2, 2 mM CaCl2, 0.1 mM BSA, 1.7% Triton X-100, pH 8, temperature not stated; MST with CRP-biotin: 32.8 mM Tris-HCl, 70.5 mM NaCl, 2.5 mM KCl, 2.5 mM MgCl2, 1.4 mM CaCl2, 0.1% Tween-20, 5 nM FAM-oligo. The following applies: protein: commercial, tags: biotin (NHS-PEG4-Biotin), chain copies: 5, label: 10 nm gold nanoparticle via 5' thiol.

Series [8] has the same target. In words: lateral flow assay (FAM); 4 µg CRP-biotin; LFA: 20 mM Tris, 50 mM NaCl, 5 mM KCl, 5 mM MgCl2, 2 mM CaCl2, 0.1 mM BSA, 1.7% Triton X-100, pH 8, temperature not stated; MST with CRP-biotin: 32.8 mM Tris-HCl, 70.5 mM NaCl, 2.5 mM KCl, 2.5 mM MgCl2, 1.4 mM CaCl2, 0.1% Tween-20, 5 nM FAM-oligo. The following applies: protein: commercial; tags: biotin (NHS-PEG4-Biotin); chain copies: 5; label: 5' FAM.

The term KD denotes the equilibrium constant for the complex coming apart. The low end stands for tighter binding, the high end for weaker binding. `CC1(C)S[C@@H]2[C@H](NC(=O)[C@H](N)c3ccccc3)C(=O)N2[C@H]1C(=O)O` showed a KD in series [1] of 263 nM. Also, the binding result in series [2], in series [3] and in series [4] was “yes” each time.

On to ACACGATGGGGGGGTATGATTTGATGTGGTTGTTGCATGATCGTGG (ssDNA) [CRP-FAM], for which the binding result in series [5] is on record as “binds”. On to ACACGATGGGGGGGTATGATTTGATGTGGTTGTTGCATGATCGTGG (ssDNA, 5' SH-(C6H12) thiol) [α-CRP (AuNP conjugate)], for which the binding result in series [6] is recorded as “binds”. Take CACGGCATGGTGGGCGTCGTG (ssDNA) [Amp(short)-FAM]: the binding result in series [5] is “binds”.

Take TTTTTTTTTTTTTTTCACGGCATGGTGGGCGTCGTG (ssDNA, 5' SH-(C6H12) thiol) [α-Amp-poly(T) (AuNP conjugate)]: in series [7], the binding result is “binds”. Consider CACGGCATGGTGGGCGTCGTG (ssDNA, 5' SH-(C6H12) thiol) [α-Amp-short (AuNP conjugate)], for which the binding result in series [7] (stem-loop (Mfold)) was “binds”. For CACGGCATAGACCGCGTCGTG (ssDNA) [Amp(short) w/o TGG-FAM], the binding result in series [8] is on record as “binds”. Same read-out and setting: as for ACACGAACCGGGCCAATGATTTGATGACCTTGTTGCATGATCGTAG (ssDNA) [CRP w/o TGG-FAM], the entry is “binds”.
